{"source": "patent US20090088376A1", "about": "“DENDRIMER BASED COMPOSITIONS AND METHODS OF USING THE SAME” (priority 2007, published 2009)", "molecules": {"B1": {"name": "EGF-FI (conjugate, UniProt P01133 23-1207, looked up)", "Pro-epidermal growth factor": "PQHWSCPEGTLAGNGNSTCVGPAPFLIFSHGNSIFRIDTEGTNYEQLVVDAGVSVIMDFHYNEKRIYWVDLERQLLQRVFLNGSRQERVCNIEKNVSGMAINWINEEVIWSNQQEGIITVTDMKGNNSHILLSALKYPANVAVDPVERFIFWSSEVAGSLYRADLDGVGVKALLETSEKITAVSLDVLDKRLFWIQYNREGSNSLICSCDYDGGSVHISKHPTQHNLFAMSLFGDRIFYSTWKMKTIWIANKHTGKDMVRINLHSSFVPLGELKVVHPLAQPKAEDDTWEPEQKLCKLRKGNCSSTVCGQDLQSHLCMCAEGYALSRDRKYCEDVNECAFWNHGCTLGCKNTPGSYYCTCPVGFVLLPDGKRCHQLVSCPRNVSECSHDCVLTSEGPLCFCPEGSVLERDGKTCSGCSSPDNGGCSQLCVPLSPVSWECDCFPGYDLQLDEKSCAASGPQPFLLFANSQDIRHMHFDGTDYGTLLSQQMGMVYALDHDPVENKIYFAHTALKWIERANMDGSQRERLIEEGVDVPEGLAVDWIGRRFYWTDRGKSLIGRSDLNGKRSKIITKENISQPRGIAVHPMAKRLFWTDTGINPRIESSSLQGLGRLVIASSDLIWPSGITIDFLTDKLYWCDAKQSVIEMANLDGSKRRRLTQNDVGHPFAVAVFEDYVWFSDWAMPSVMRVNKRTGKDRVRLQGSMLKPSSLVVVHPLAKPGADPCLYQNGGCEHICKKRLGTAWCSCREGFMKASDGKTCLALDGHQLLAGGEVDLKNQVTPLDILSKTRVSEDNITESQHMLVAEIMVSDQDDCAPVGCSMYARCISEGEDATCQCLKGFAGDGKLCSDIDECEMGVPVCPPASSKCINTEGGYVCRCSEGYQGDGIHCLDIDECQLGEHSCGENASCTNTEGGYTCMCAGRLSEPGLICPDSTPPPHLREDDHHYSVRNSDSECPLSHDGYCLHDGVCMYIEALDKYACNCVVGYIGERCQYRDLKWWELRHAGHGQQQKVIVVAVCVVVLVMLLLLSLWGAHYYRTQKLLSKNPKNPYEESSRDVRSRRPADTEDGMSSCPQPWFVVIKEHQDLKNGGQPVAGEDGQAADGSMQPTSWRQEPQLCGMGTEQGCWIPVSSDKGSCPQVMERSFHMPSYGTQTLEGGVEKPHSLLSANPLWQQRALDPPHQMELTQ", "modifications": "Pro-epidermal growth factor fluorescein label"}}, "system": "A431 cells", "assay": "Binding of dendrimer-EGF conjugate by flow cytometry", "assay_type": "cell-based", "experimental": "Cell culture and treatment. The cell lines were cultured in Dulbecco's Modified Eagle Medium (DMEM) supplemented with 10% fetal calf serum (FCS), 100 units/ml penicillin, and 100 μg/ml streptomycin. Cells were allowed to grow in a monolayer in tissue culture flasks incubated at 37° C. in a humidified atmosphere containing 5% CO2 and 95% air. Cells plated in 24-well plates (for flow cytometry), 35 mm dishes with glass cover slips in the bottom (for confocal microscopy) and 96 well plates (for ‘FACE’ and ‘XTT’ assays) were treated with the conjugate under the specified incubation conditions. Excess free EGF was added 30 min prior to the conjugates for blocking the binding of the latter. Competition assay with free EGF was conducted at 4° C. by simultaneously exposing the conjugate and free EGF.\nFlow Cytometry and Confocal Microscopy. The FITC fluorescence was quantified on a f a BECKMAN-COULTER EPICS-XL MCL flow cytometer, and the data were analyzed using EXPO32 software (BECKMAN-COULTER, Miami, Fla.). The viable cells were gated, and the mean FL1-fluorescence of 10,000 cells was quantified. […] Cells were incubated with the conjugate in serum-free medium under the specified conditions and analyzed using an OLYMPUS FLUOVIEW 500 laser scanning confocal microscope. FITC fluorescence was excited with a 488 nm blue argon laser and emission was measured through a 505-525 nm barrier filter. […]"}
{"molecule": "B1", "values": [{"measurement": "IC50", "setting": "100 nM conjugate, 1 h at 4° C., value listed under the conjugate displaced, read-out: concentration of free EGF giving 50% inhibition of binding of the labeled conjugate", "result": 60, "unit": "nM"}, {"measurement": "apparent KA", "setting": "double reciprocal binding plots of normalized fluorescence", "result": 15, "unit": "nM"}]}
